Assay results: patent US20220031841A1 (ABSCI, published 2022)
Blank lines part the entries; values can stand above or below the binder they belong to.

Assays:
[1] = molecular target: T1, Chromobox protein homolog 5 (CBX5) (human, UniProt P45973 1-191); test: HuProt protein array, F635 z-score
T1 construct: The array carries full-length recombinant human proteins expressed in S. cerevisiae; also called Human Chromobox protein homolog 5
In short: (§1)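 Full-length human proteins expressed in S. cerevisiae, purified and printed in duplicate on nitrocellulose-coated glass were probed with test antibodies at 1 μg/ml for 1 h at room temperature. Bound IgG was detected with Alexa-647 anti-human IgG Fc gamma secondary; Z-score is the mean of duplicate spots.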

[2] = molecular target: T2, Cancer/testis antigen 1 (CTAG1A) (human, UniProt P78358 1-180); test: HuProt protein array, F635 z-score
T2 construct: The array carries full-length recombinant human proteins expressed in S. cerevisiae; also called NY-ESO-1; Cancer/Testis Antigen 1A
In short: as §1

[3] = molecular target: T3, O-linked N-acetylglucosamine (GlcNAc) transferase (OGT) (human, UniProt O15294 2-1046); test: HuProt protein array, F635 z-score
T3 construct: The array carries full-length recombinant human proteins expressed in S. cerevisiae; also called Human OGT
T3 sequence: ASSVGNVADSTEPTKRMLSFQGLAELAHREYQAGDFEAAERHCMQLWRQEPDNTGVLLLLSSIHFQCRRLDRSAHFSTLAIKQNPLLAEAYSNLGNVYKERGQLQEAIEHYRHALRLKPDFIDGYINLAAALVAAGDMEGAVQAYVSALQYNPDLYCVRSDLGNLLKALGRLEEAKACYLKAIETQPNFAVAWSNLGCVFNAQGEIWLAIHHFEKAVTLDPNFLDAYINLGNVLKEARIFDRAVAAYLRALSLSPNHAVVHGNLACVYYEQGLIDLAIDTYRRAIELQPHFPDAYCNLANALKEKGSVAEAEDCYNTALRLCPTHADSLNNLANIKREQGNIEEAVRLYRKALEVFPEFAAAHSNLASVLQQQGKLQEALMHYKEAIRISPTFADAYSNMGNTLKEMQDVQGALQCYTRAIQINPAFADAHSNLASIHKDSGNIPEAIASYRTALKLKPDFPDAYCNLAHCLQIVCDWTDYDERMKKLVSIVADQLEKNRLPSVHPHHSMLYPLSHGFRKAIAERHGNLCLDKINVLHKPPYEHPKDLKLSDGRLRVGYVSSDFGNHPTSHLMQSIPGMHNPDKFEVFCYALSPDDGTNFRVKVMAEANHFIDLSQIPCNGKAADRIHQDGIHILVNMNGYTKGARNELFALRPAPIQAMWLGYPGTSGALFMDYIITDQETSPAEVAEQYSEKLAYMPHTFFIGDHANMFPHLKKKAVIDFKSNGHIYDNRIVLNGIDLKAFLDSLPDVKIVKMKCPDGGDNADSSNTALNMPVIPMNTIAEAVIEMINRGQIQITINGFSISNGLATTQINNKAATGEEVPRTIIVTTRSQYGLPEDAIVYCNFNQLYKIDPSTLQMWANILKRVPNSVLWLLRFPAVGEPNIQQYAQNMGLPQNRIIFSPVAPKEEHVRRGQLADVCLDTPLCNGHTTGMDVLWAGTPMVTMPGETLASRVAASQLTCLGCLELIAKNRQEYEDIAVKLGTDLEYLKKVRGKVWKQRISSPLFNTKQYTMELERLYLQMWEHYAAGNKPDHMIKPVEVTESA
In short: as §1

[4] = molecular target: T4, Kinesin light chain 4 protein (KLC4) (human, UniProt Q9NSK0 2-619); test: HuProt protein array, F635 z-score
T4 construct: The array carries full-length recombinant human proteins expressed in S. cerevisiae; also called Human KLC4
In short: as §1

[5] = molecular target: T4, Kinesin light chain 4 protein (KLC4); test: HuProt protein array, antibody at 1 µg/ml, Alexa-647 anti-human IgG Fc; F635 signal as z-score; KLC4 replicate 1
Excerpt: (§2) Large scale protein arrays are versatile and sensitive platforms for antibody specificity evaluation. They can be used for the evaluation of protein binding or affinity reagents that are widely employed in research and clinical applications. The microarray used in our target identification experiment provides the largest number of unique, full-length, individually purified human proteins on a single microscope slide. This allows thousands of interactions to be profiled in a high-throughput manner. The hill-length recombinant proteins are expressed in the yeast S. cerevisiae, purified, and printed on glass slides in duplicate along with a set of control proteins (GST, BSA, histones, IgG, etc.). Such microarray is not restricted to a particular type of surface coating, although the default is glass coated with ultra-thin nitrocellulose film for the non-covalent, yet irreversible, capture of active proteins to the surface. Fourteen Protein arrays were used for the antibody cross-reactivity assay of the samples. […] The antibody-antigen binding score was calculated for each protein represented on the array and expressed as z-scores. […]
(§3) Z score is the average Z score of the duplicate spots of a given protein (each protein is printed in duplicate on a HuProt™ array). The Z score of each spot on a given array is calculated according to the equation: […]

[6] = molecular target: T3, O-linked N-acetylglucosamine (GlcNAc) …; test: HuProt protein array, antibody at 1 µg/ml, Alexa-647 anti-human IgG Fc; F635 signal as z-score; OGT replicate 1
Excerpt: as §2, §3

[7] = molecular target: T5, Melanoma-associated antigen 3 (MAGE-A3) (human, UniProt P43357 1-314); test: HuProt protein array, antibody at 1 µg/ml, Alexa-647 anti-human IgG Fc; F635 signal as z-score; MAGEA3 replicate 1
T5 construct: The array carries full-length recombinant human proteins expressed in S. cerevisiae; also called Human MAGE-A3
Excerpt: as §2, §3

[8] = molecular target: T6, Alpha-taxilin (TXLNA) also known as interleukin-14A (human, UniProt P40222 1-546); test: HuProt protein array, antibody at 1 µg/ml, Alexa-647 anti-human IgG Fc; F635 signal as z-score; TXLNA replicate 1
T6 construct: The array carries full-length recombinant human proteins expressed in S. cerevisiae; also called IL-14A; TXLNA/IL-14A
Excerpt: as §2, §3

T2 sequence (P78358 whole entry): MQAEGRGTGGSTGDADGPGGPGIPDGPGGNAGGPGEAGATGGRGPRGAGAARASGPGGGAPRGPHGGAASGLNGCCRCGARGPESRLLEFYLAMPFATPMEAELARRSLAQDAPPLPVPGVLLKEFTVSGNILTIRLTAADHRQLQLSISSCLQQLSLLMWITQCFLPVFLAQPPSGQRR
T1 sequence (P45973 whole entry): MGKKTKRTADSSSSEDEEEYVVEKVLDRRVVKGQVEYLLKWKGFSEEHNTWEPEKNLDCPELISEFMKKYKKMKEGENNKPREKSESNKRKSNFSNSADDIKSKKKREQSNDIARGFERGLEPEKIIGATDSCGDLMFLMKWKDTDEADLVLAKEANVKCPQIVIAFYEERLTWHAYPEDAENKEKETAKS
T4 sequence (Q9NSK0 2-619 limits assumed): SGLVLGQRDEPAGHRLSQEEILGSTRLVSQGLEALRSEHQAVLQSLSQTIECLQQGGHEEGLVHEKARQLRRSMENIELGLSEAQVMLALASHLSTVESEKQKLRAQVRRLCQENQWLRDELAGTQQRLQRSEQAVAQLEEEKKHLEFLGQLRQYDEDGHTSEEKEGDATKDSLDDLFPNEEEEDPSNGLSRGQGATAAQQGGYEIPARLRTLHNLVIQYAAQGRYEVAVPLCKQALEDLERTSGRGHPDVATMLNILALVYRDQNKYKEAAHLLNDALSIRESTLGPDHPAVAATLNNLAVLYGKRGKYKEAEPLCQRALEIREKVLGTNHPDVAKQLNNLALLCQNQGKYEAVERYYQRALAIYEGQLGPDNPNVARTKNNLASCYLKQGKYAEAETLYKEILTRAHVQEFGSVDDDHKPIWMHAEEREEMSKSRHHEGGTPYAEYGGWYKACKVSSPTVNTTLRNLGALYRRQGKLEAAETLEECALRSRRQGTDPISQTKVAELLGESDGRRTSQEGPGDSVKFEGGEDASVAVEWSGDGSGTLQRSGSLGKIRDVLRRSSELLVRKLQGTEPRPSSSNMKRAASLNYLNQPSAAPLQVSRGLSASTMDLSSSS
T5 sequence (P43357 whole entry): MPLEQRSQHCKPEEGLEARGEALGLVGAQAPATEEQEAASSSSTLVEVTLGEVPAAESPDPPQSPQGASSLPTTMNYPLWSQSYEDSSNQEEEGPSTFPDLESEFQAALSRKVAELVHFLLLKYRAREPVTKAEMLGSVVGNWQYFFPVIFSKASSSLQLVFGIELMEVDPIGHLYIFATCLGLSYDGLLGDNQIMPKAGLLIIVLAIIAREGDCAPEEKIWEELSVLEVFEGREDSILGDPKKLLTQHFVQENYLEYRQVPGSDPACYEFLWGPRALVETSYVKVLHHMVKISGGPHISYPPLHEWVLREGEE
T6 sequence (P40222 whole entry): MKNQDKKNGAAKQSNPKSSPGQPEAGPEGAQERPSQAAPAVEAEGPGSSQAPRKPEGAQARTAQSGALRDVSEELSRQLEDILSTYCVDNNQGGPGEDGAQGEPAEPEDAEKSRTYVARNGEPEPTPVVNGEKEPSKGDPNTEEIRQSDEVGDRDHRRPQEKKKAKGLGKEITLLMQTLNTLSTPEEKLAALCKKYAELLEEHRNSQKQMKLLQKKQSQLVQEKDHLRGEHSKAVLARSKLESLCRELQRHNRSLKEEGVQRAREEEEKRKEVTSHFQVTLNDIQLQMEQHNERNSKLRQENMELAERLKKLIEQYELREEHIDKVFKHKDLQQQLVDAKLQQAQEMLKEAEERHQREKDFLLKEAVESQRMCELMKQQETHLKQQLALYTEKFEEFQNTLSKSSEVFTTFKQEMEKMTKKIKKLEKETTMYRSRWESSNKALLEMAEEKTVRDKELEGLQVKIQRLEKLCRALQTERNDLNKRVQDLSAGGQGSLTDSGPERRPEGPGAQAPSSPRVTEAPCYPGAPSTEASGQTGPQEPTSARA

B1: TMEL1009 (antibody, V domains shown)
VH: PVQLVQSGAEVKKPGSSVKVSCRASGGTFSNYGLNWVRQAPGQGLEWMGGIIPIFGSVNYAQKFQDRVTITADESTSTTYMDLNSLRSEDTAVYYCATERGHNMERAFDFWGQGTLVTVSS
VL: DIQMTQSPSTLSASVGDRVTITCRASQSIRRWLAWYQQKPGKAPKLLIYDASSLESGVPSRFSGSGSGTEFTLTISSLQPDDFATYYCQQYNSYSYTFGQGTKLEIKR
binding result [1]: no binding (tested: 1 µg/ml) | binding result [2]: no binding (tested: 1 µg/ml) | binding result [3]: no binding (tested: 1 µg/ml)

B2: TMEL1004 (antibody, V domains shown)
VH: QITLKESGPTLVKPTQTLTLTCTFSGFSLNTPGVGVGWIRQPPGKALEWLALIYWDDDKRYRPSLESRLTITKDTSKNHVVLTMTNMDPVDTATYFCAHKNLQYSEWFDPWGQGTLVIVSS
VL: EMVLTQSPATLSLSPGERATLSCRASQSVSRNSLAWYQQRPGQTPRLLIYGASSRATGIPDRFSGSGSGTDFTLIISRLEPEDFAVYFCLQYDESPYTFGQGAKLEIKR
binding result [1]: no binding (tested: 1 µg/ml) | binding result [2]: no binding (tested: 1 µg/ml) | binding result [3]: no binding (tested: 1 µg/ml)

B3: TMEL1012 (antibody, V domains shown)
VH: PLQLQESGPGLVKPSETLSLTCTVSGDSITTTYYWGWIRQPPGKGLEWIASIYFTGSTFHNPSLKSRVTMSVDTSKNQFSLNLSSVTAADTAVYYCARRVGNWNYVWFDPWGQGTLVSVSS
VL: AYVLTQPPSVSVAPGQTARMTCGGNNIGSKSVHWYRQRPGQAPVLVVYDDTDRPSGIPERFSGSNSGNTATLTISRVEAGDEADYYCQVWDTNSDHVVFGGGTKLTVLG
binding result [1]: no binding (tested: 1 µg/ml) | binding result [2]: no binding (tested: 1 µg/ml) | binding result [3]: no binding (tested: 1 µg/ml)

B4: TMEL1013 (antibody, V domains shown)
VH: PVQLVQSGAEVKKPGSSVKVSCKASGGTFSSYTINWVRQAPGQGLEWMGRIIPILGVANYAQKFQGRVTITADKSTSTAYMDLSSLRSEDTAVYYCAREWERAFDYWGQGTLVTVSS
VL: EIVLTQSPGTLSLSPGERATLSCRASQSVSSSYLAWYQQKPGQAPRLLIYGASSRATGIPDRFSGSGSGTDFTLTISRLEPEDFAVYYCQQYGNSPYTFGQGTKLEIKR
binding result [1]: no binding (tested: 1 µg/ml) | binding result [2]: no binding (tested: 1 µg/ml) | binding result [4]: no binding (tested: 1 µg/ml) | binding result [3]: no binding (tested: 1 µg/ml)

B5: TMEL1007 (antibody, V domains shown)
VH: HVHLVQSGAEVKKPGSSVKVSCTASGGSFSSNPISWVRQAPGHGLQWMGGFVPLFGTANYAPSFHGRLTITADESTSTTYMELNSLRSEDSAVYYCARDFNWNFDFWGQGTLVTVSS
VL: QSALTQPASVSGSPGQSITISCTGTSSDIGSYNLVSWYRQYPGKAPKLMIYEVNKRPSGVSNRFSGSKSGNTASLTISGLQAEDEADYYCCSYAGTTTFVIFGRGTKLTVLG
notes: It was detected with an anti-human IgG Fc gamma secondary antibody
binding result [1]: no binding (tested: 1 µg/ml) | binding result [2]: no binding (tested: 1 µg/ml) | binding result [3]: no binding (tested: 1 µg/ml) | binding result [5]: binds

B6: TMEL1014 (antibody, V domains shown)
VH: SVQLVESGGGVVQPGRSLRLSCAASGFTFSSYTMHWVRQAPGKGLEWVALISYDGSNKYYADSVKGRFTISRDNPKNTLYLQMNSLRVEDTAVYYCARDWTLGYWGQGTLVTVSS
VL: VSSELTQDPAVSVALGQTVRITCQGDSLRNYYANWYQQKPGQAPILVIYDKNNRPSGIPDRFSGSSSGNTASLTITGAQAEDEADYYCNSRDSSGYHLVFGGGTKLTVLG
notes: as for B5
binding result [1]: no binding (tested: 1 µg/ml) | binding result [2]: no binding (tested: 1 µg/ml) | binding result [6]: binds

More lines, now with the values ahead:

binding result [1]: no binding (tested: 1 µg/ml) | binding result [2]: no binding (tested: 1 µg/ml) | binding result [3]: no binding (tested: 1 µg/ml) | binding result [7]: binds
B7: TMEL1008 (antibody, V domains shown)
VH: QVQLVQSGAEVKKPGSSVKVSCKASGGTFNRDGIIWVRQAPGQGLEWMGRIIPILGIANYAQKFQGRVTIIADKSTSTAYMELSSLRSEDTAVYYCARESEVGRGMDVWGQGTTVTVSS
VL: ASALTQPASVSGSPGQSITISCTGTSSDVGDYNYVSWYQQHPGKAPKLMIYDVSNRPSGVSHRFSGSKSGNTASLTISGLQAEDEADYYCSSYTISSTLGVFGPGTKVTVLG
notes: as for B5

binding result [1]: no binding (tested: 1 µg/ml) | binding result [2]: no binding (tested: 1 µg/ml) | binding result [3]: no binding (tested: 1 µg/ml)
B8: TMEL1002 (antibody, V domains shown)
VH: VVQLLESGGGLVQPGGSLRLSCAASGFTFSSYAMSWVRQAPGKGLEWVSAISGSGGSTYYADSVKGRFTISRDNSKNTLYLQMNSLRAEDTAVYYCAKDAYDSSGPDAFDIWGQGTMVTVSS
VL: ASALTQPASVSGSPGQSITISCTGTSSDVGDYNYVSWYQQHPGKAPKLMIYDVSNRPSGVSNRFSGSKSGNTASLTISGLQAEDEADYYCSSYTSSSTLVFGGGTKLTVLG

binding result [1]: no binding (tested: 1 µg/ml) | binding result [2]: no binding (tested: 1 µg/ml) | binding result [3]: no binding (tested: 1 µg/ml)
B9: TMEL1010 (antibody, V domains shown)
VH: QVQLVQSGAEVKKPGASVKVSCKASGYTFSSYGISWVRQAPGQGLEWMGWISAYNGNTNYAKKLQGRVTMTTDTSTSTAYLELRSLRSDDTAVYYCARGDGPFDYWGQGTLVTVSS
VL: EIVMTQSPATLSVSPGERATLSCWASQSVSSSLAWYQQKPGQAPRLLMYGASNRATGIPARFSGSGSGTEFTLTISSLQSEDFAVYYCQQYNKWPPDTFGQGTKLEIKR
notes: as for B5

binding result [1]: no binding (tested: 1 µg/ml) | binding result [2]: no binding (tested: 1 µg/ml) | binding result [3]: no binding (tested: 1 µg/ml) | binding result [8]: binds
B10: TMEL1011 (antibody, V domains shown)
VH: PVQLVQSGAEVKKPGSSVKVSCKASGGTFSSYSFNWVRQAPGQGLEWMARIIPILGLANYAQKFQGRVTLTADESTSTAYMELSSLRSEDTAIFYCAGMVLGQLGFDPWGQGTLVTVSS
VL: QFMLTQPHSVSESPGRTVTISCTRSSGSIARNYVHWYQHRPGSSPTTVIYEDDQRPSGVPDRFSGSIDSSSNSASLTISGLKPEDEADYFCQSYDSNIWVFGGGTKLTVLG
notes: as for B5
